Legend:
[1] = biological target: extracellular domain of human LEPR with an N-terminal myc-myc tag, GPI-anchored on HEK293 cells (human) (UniProt P48357); assay: FACS, secondary alone, HEK293/hLEPR-GPI cells, 1 µM Leptin
[2] = biological target: extracellular domain of human LEPR with an N-terminal myc-myc tag, GPI-anchored on HEK293 cells (human) (UniProt P48357); assay: FACS, secondary alone, HEK293/hLEPR-GPI cells, no added Leptin

Chain of extracellular domain of human LEPR with an N-terminal myc-myc tag, GPI-anchored on HEK293 cells (human) (P48357 22-839 limits assumed): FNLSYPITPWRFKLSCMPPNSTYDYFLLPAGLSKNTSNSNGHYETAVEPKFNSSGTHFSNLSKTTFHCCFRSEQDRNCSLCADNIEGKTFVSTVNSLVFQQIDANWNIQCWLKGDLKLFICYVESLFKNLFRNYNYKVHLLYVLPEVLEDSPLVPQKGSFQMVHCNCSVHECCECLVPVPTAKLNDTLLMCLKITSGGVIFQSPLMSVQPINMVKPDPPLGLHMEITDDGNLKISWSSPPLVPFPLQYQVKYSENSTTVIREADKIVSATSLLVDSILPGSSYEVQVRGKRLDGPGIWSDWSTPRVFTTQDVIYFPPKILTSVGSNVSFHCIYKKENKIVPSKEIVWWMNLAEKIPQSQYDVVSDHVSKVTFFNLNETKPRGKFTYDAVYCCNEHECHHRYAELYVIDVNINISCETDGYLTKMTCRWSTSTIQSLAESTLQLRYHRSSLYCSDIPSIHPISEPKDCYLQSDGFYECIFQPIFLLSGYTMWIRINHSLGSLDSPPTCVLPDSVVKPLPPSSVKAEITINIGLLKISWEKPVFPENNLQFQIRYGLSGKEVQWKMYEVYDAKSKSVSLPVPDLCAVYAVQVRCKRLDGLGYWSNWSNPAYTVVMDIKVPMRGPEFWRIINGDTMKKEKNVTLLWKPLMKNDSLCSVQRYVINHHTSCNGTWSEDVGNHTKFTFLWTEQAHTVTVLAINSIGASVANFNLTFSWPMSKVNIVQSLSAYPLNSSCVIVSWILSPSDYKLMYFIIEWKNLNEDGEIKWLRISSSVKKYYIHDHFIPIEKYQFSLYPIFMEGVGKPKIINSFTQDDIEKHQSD

Binding Ratio (normalized to unstained) [1] [fold]	Binding Ratio (normalized to unstained) [2] [fold]	Substance
3	3	Anti-human IgG secondary antibody alone
2	2	Anti-mouse IgG secondary antibody alone
